Measurements taken from article PMC12051786, “Photoisomerization of Azobenzene‐Extended Charybdotoxin for the Optical Control of Kv1.2 Potassium Channel Activity” (Angewandte Chemie (International Ed. in English), 2025).

How the values were obtained:
[1] = Photo-isomerization kinetics (trans/cis) followed by absorbance under illumination; format: physicochemical; details: 9.5 mW cm−2, 100% DMSO
From the text: Next, we evaluated for all monomers and dimers the trans‐cis isomerization reactions under various wavelengths of illumination. Illuminating the ChTx‐Ah^14‐Az1 monomer at λ = 365 nm at 9.5 mW cm^−2, to favor the cis configuration, yielded a significant time‐dependent change in the absorbance properties of the peptide, characterized by a decrease of the absorbance band maximum centered at 340 nm (Figure 4a).

[2] = Thermal stability of the cis isomer in the dark; details: Figure S3
[3] = molecular target: mouse Kv1.2 channel (mouse) (UniProt P63141)
[4] = molecular target: mouse Kv1.2 channel (mouse) (UniProt P63141); remark: listed apart in the source

mouse Kv1.2 channel (mouse), sequence (P63141 whole entry): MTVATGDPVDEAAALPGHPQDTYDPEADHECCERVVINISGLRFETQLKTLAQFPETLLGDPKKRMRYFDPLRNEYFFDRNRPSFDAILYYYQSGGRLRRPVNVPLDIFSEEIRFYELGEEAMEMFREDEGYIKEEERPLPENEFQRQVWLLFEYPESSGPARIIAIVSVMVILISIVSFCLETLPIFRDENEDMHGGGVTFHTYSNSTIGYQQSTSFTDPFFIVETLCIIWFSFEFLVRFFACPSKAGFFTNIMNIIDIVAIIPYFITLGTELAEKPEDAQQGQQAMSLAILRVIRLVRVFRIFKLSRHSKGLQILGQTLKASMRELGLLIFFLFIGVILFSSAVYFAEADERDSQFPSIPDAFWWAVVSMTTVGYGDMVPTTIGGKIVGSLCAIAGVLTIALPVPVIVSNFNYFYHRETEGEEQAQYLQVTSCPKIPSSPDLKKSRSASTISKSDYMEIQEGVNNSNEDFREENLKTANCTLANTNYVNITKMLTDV
charybdotoxin, sequence (P13487 23-59): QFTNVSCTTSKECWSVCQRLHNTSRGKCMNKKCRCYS
ChTx‐Ah^12, sequence (P13487 whole entry, looked up): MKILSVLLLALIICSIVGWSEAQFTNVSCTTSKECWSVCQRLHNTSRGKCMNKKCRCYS
ChTx‐Ah^9, sequence (P13487 whole entry, looked up): as above

Compound	IC50 of inhibition of K+ current, L929 cells stably overexpressing mouse Kv1.2, automated patch-clamp [3]	percent block of Kv1.2 current at 10 nM peptide, patch-clamp [4]	other results
C#CCNC(=O)c1ccc(/N=N/c2ccc(C(=O)NCC#C)cc2)cc1 [Az1, (E)‐4,4′‐(diazene‐1,2‐diyl)bis(N‐(prop‐2‐yn‐1‐yl)benzamide)]			Time at which formation of the cis isomer saturates ([1]; irradiation at 340 nm): 300 s; Time for recovery of trans-enriched compound on reverse-switching ([1]; irradiation at 435 nm): ≈ 60 s; Thermal stability of the cis isomer [2]: remarkably stable
ChTx‐Ah^9 (from UniProt P13487 23-59) (peptide)	6.3 nM		
ChTx‐Ah^12 (from UniProt P13487 23-59) (peptide)	1.2 nM		
ChTx‐Ah^14 (from UniProt P13487 23-59) (peptide)	9.8 nM	52%	
ChTx‐Ah^19 (from UniProt P13487 23-59) (peptide)	11.5 nM		
charybdotoxin (from UniProt P13487 23-59) (peptide)	5 nM	62.2%	
